Tests used:
[1] = biological target: IRF3, activated in vitro by virus-activated mitochondria (P5) and cytosolic extract (UniProt Q14653); test: SEC
[2] = biological target: IRF3 (UniProt Q14653); test: Superdex-200 gel filtration after cell-free reaction; conditions: reference: reaction without virus-activated mitochondria; sites S385,S386,S396

Chain of IRF3 (Q14653 whole entry, change not shown): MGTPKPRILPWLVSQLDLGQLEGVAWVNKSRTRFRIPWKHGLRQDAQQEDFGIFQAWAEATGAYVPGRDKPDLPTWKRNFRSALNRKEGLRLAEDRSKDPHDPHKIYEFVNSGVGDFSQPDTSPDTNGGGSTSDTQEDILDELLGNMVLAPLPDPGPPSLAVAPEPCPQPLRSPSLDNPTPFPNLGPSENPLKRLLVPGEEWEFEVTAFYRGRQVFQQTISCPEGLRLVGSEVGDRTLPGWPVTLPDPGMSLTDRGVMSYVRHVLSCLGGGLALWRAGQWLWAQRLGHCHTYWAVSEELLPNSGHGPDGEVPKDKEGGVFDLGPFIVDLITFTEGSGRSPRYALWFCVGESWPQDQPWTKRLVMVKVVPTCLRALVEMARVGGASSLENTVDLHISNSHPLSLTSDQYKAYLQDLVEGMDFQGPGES

Row | Substance | stoichiometry N [1] | other: apparent molecular mass [2]
1 | IRF3, activated in vitro by virus-activated mitochondria (P5) and cytosolic extract (from UniProt Q14653 1-427) (natural protein) | 2 | 
2 | IRF3 (from UniProt Q14653) reaction with virus-activated mitochondria (P5) |  | gained; reference 150
